Reference: the supplement of paper PMC9170038

System: MS2 coat protein
Assay: apparent KD of MS2 coat protein; designed switch direction (-1 OFF switch, 1 ON switch): -1; higher = weaker reporter binding
Method in brief: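 RNA switches sharing common flanks were transcribed by stalled E. coli RNA polymerase on Illumina chips. A doubling series of SNAP-549-labelled MS2 coat protein, from 0.7 or 1.5 nM to 3 µM, was applied in Tris-HCl pH 7.5 buffer with KCl, MgCl2, BSA, DTT, tRNA and Tween-20. Each step lasted 0.8–1.5 h at the bottom of the series and 10–20 min at the top. Normalised cluster fluorescence was curve-fitted, giving apparent KD as the per-design median over clusters.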

[1] = Eterna round: R95, input ligand: FMN 200 uM
[2] = Eterna round: R95, input ligand: microRNA oligo, concentration not stated
[3] = Eterna round: R95, input ligand: none
[4] = input ligand: microRNA oligo, concentration not stated

Row | Sequence | apparent KD of MS2 coat protein [2] [nM] | apparent KD of MS2 coat protein (input ligand: FMN 200 uM) [nM] | apparent KD of MS2 coat protein (input ligand: none) [nM] | also measured
1 | GAGAACGUAGGAUAUACAUGAGGAUCACCCAUGUGAGGAAGGAGUAGGAAGCGUGGAAGUAGAAGGACGGAGAG [JR_Exclu3_Sub073] (puzzle: Exclusion 3) | 40.6 | – | – | apparent KD of MS2 coat protein [1]: 57.6 nM; apparent KD of MS2 coat protein [3]: 24.5 nM
2 | GAGAAGGUAGGAUAUACGAAUAAAUAGGGUAGUAAGAAGACACAUGAGGAUCACCCAUGUAGAAGGACCAAGAG [Mat - Exclusion 2 - Mod of my Tesla design - D37] (puzzle: Exclusion 2) | 19.2 | – | – | apparent KD of MS2 coat protein [1]: 34.6 nM; apparent KD of MS2 coat protein [3]: 21.8 nM
3 | GAGAAGUGAGGAUAUGCGGUAAGGAUGAAAGGAAGGAAUGAGUAGAAGGCACAUGAGGAUCACCCAUGUAGAGU [JR_Exclu4_Sub081] (puzzle: Exclusion 4) | 18.5 | – | – | apparent KD of MS2 coat protein [1]: 19.5 nM; apparent KD of MS2 coat protein [3]: 21.1 nM
4 | GAGAUGUGAGGAUAUCUAGACCAUGGAAAAGCCACGGUCCGAGAGAAGGCACAUGAGGAUCACCCAUGUGAUGA [Quedte] (puzzle: Exclusion 4) | 43.7 | – | – | –
5 | GAGAUGUGAGGAUAUCUAGACCGCGGCAGAGCUGCGGUCCGAGAGAAGGCACAUGAGGAUCACCCAUGUGAUGA [Beriesan] (puzzle: Exclusion 4) | 47.3 | – | – | –
6 | GAGCACUGCCGAGGAUAUCCACAUGAGGAUCACCCAUGUAGUGAAAAGUCCCAGUAGAACCAAAUGGAGAAGGUGGCAAGAUAU [Eternabot solution 21] (Eterna round: R96, puzzle: Exclusion NG 2) | – | 23.2 | 17.9 | apparent KD of MS2 coat protein [4]: 20 nM
7 | GAGCCAUCGUGAGAUGGCUCAAUUACAUGAGGAUCACCCAUGUAGGAUAUCGAUUGCUUUGCAGUCGAGAAGGACAUGUUUAAU [JL ENG3 3.00] (Eterna round: R96, puzzle: Exclusion NG 3) | – | 67.4 | 30.3 | apparent KD of MS2 coat protein [4]: 25.8 nM
8 | GAGCUAUGAGGAUAUGCAUAGAUACGGAUUCGUGUAGUACUACAUGAGGAUCACCCAUGUAGAAGGCGUGGCUG [JL-ex2-2.02 mat747 mod] (puzzle: Exclusion 2) | 15.4 | – | – | –
9 | GAGCUAUGAGGAUAUGCAUAUAUACGGAUUCGUGUAGUACUACAUGAGGAUCACCCAUGUAGAAGGCGUGGCUG [JL-ex2-2.03 mat747 mod] (puzzle: Exclusion 2) | 13.2 | – | – | –
10 | GAGCUAUGAGGAUAUGCAUAUAUACGGAUUCGUGUGGUACUACAUGAGGAUCACCCAUGUAGAAGGCGUGGCUG [JL-ex2-2.04 mat747 mod] (puzzle: Exclusion 2) | 16.2 | – | – | –
11 | GAGGAACAUGAGGAUCACCCAUGUAAGGAUAUGCAAAGAGAGAAAGAAGAAGGAGAAAGCAGAAGGUACAAGGA [JR_Exclu1_Sub073] (puzzle: Exclusion 1) | 35.1 | – | – | apparent KD of MS2 coat protein [1]: 42.7 nM; apparent KD of MS2 coat protein [3]: 54.2 nM
12 | GAGGAACAUGAGGAUCACCCAUGUAAGGAUAUGCAAAGAGAGGUAGUAGAAGGAGAAGGCAGAAGGUACAAGGA [JR_Exclu1_Sub074] (puzzle: Exclusion 1) | 36.1 | – | – | apparent KD of MS2 coat protein [1]: 47.7 nM; apparent KD of MS2 coat protein [3]: 50 nM
13 | GAGGACUUAGGAUAUACAUGAGGAUCACCCAUGUCCCUAAGCAUGCGACAGCCCUCGAGUAGAAGGGAGGACCA [Eternabot (Original) Solution 3] (Eterna round: R97, puzzle: Exclusion 3) | – | 14.8 | 14.7 | –
14 | GAGGAGCAAGGAUAUACGAGGAUAUGGUAGUUUGUAGAGUGACAUGAGGAUCACCCAUGUAGAAGGUGCGAGGG [JR_Exclu2_Sub099] (puzzle: Exclusion 2) | 41.7 | – | – | –
15 | GAGGCAUGCCGAGGUCCACACAUGAGGAUCACCCAUGUCAUGACAGGCUUUUUACUCGUUUUAUCGCUAUCGCGUUC [Vebizaledi] (puzzle: Sensor v3, turn-off variant 1) | 159 | – | – | apparent KD of MS2 coat protein [1]: 84.8 nM; apparent KD of MS2 coat protein [3]: 70.7 nM
16 | GAGUACAGAGGAUAUACAUGAGGAUCACCCAUGUGUUUCAGCUAGGAGACUAGCGAAAGUAGAAGGCUGUACUU [salish99_ex3_r4_005] (Eterna round: R97, puzzle: Exclusion 3) | – | 25.7 | 8.49 | –
17 | GAGUACUGAGGAUAUACAUGAGGAUCACCCAUGUGUUCCAACUAGGAAUCUAGAAUGUGUAGAAGGCAGUGCUG [salish99_ex3_r4_703] (Eterna round: R97, puzzle: Exclusion 3) | – | 298 | 262 | –

Row | Sequence | apparent KD of MS2 coat protein [2] [nM] | apparent KD of MS2 coat protein (input ligand: FMN 200 uM) [nM] | apparent KD of MS2 coat protein (input ligand: none) [nM] | also measured
18 | GAGUAGGGAGGAUAUACGUGCUCAAUCCCGGAAAGCGGGAAACAUGAGGAUCACCCAUGUAGAAGGCCCAUAAA [Riisen] (puzzle: Exclusion 2) | 68.4 | – | – | –
19 | GAGUAGUAAGGAUAUGUCUCUGGUGGCUUCGGUCACUAGAGGCAGAAGGUACAUGAGGAUCACCCAUGUUCCUC [ExDelusion 7 - Jieux - Exclusion 4] (Eterna round: R97, puzzle: Exclusion 4) | – | 220 | 55.2 | –
20 | GAGUGACAUGAGGAUCACCCAUGUAAGGAUAUACGGUUGGUAGAGAGAGGGAAAAGAGGUAGAAGGUACGAAGG [JR_Exclu1_Sub056] (puzzle: Exclusion 1) | 56 | – | – | apparent KD of MS2 coat protein [1]: 43.9 nM; apparent KD of MS2 coat protein [3]: 76.2 nM
21 | GAGUGACAUGAGGAUCACCCAUGUGAGGAUAUCCGAUGGACCAAAUUAACAAUAGAAGGGAGAAGGCACAUAAA [Exclusion 1 V7] (puzzle: Exclusion 1) | 127 | – | – | apparent KD of MS2 coat protein [1]: 162 nM; apparent KD of MS2 coat protein [3]: 131 nM
22 | GAGUGACAUGAGGAUCACCCAUGUGAGGAUAUCGGACGGACCAAAUUAACAUCCGCCGCGAGAAGGCACAUCGG [Exclusion 1 V22] (puzzle: Exclusion 1) | 69.4 | – | – | –
23 | GAGUGACAUGAGGAUCACCCAUGUGAGGAUAUGCGAUGGACCAAAUUAACAAUAGAAGGCAGAAGGCGCAUAAA [Exclusion 1 V9] (puzzle: Exclusion 1) | 34.8 | – | – | apparent KD of MS2 coat protein [1]: 41.4 nM; apparent KD of MS2 coat protein [3]: 41.1 nM
24 | GAGUGAUAAGGAUAUACAUGAGGAUCACCCAUGUGCUUCAGCUAGGAGACUAGCAUUGGUAGAAGGUAUUACUC [Mod of lroppy 11 - Jieux - Exclusion 3] (Eterna round: R97, puzzle: Exclusion 3) | – | 54.3 | 18.7 | –
25 | GAGUGCUGAGGAUAUACAUGAGGAUCACCCAUGUGCUUCAGCUAGGAGACUAGCAUUGGUAGAAGGCAGUACUC [LRO-Excl3-01] (puzzle: Exclusion 3) | 11.1 | – | – | –
26 | GAGUGCUGAGGAUAUACAUGAGGAUCACCCAUGUGCUUCAGCUAGGAGACUAGCAUUGGUAGAAGGCAGUACUC [Mod of lroppy - Jieux - Exclusion 3] (Eterna round: R97, puzzle: Exclusion 3) | – | 76.8 | 12.4 | –
27 | GAGUGCUGAGGAUAUACAUGAGGAUCACCCAUGUGCUUCAGCUAGGAGACUAGCAUUGGUAGAAGGUAGUACUC [LRO-Excl3-02] (puzzle: Exclusion 3) | 10.6 | – | – | –
28 | GAGUGCUGAGGAUAUACAUGAGGAUCACCCAUGUGCUUCAGCUAGGAGACUAGCAUUGGUAGAAGGUAGUACUC [Mod of lroppy 4 - Jieux - Exclusion 3] (Eterna round: R97, puzzle: Exclusion 3) | – | 19.9 | 13.2 | –
29 | GAGUGCUGAGGAUAUACAUGAGGAUCACCCAUGUGCUUCAGCUAGGAGACUAGUAUCAGUAGAAGGCAGUACUC [Mod of lroppy 20 - Jieux - Exclusion 3] (Eterna round: R97, puzzle: Exclusion 3) | – | 57.3 | 14.7 | –
30 | GAGUGCUUAGGAUAUACAUGAGGAUCACCCAUGUGCUUCAGCUAGGAGACUAGCAUUGGUAGAAGGGAGUACUC [Mod of lroppy 5 - Jieux - Exclusion 3] (Eterna round: R97, puzzle: Exclusion 3) | – | 24.2 | 14.9 | –
31 | GAGUGUUGAGGAUAUACAUGAGGAUCACCCAUGUGCUUCAGCUAGGAGACUAGCAUUGGUAGAAGGCAAUACUC [Mod of lroppy 6 - Jieux - Exclusion 3] (Eterna round: R97, puzzle: Exclusion 3) | – | 90.7 | 14.8 | –
32 | GAUACACAUGAGGAUCACCCAUGUGAGGAUAUGGAGGAGUUGCGAGUAAGCGAUGGAUCCAGAAGGCGCGUGAG [JR_Ex1_Sub082] (Eterna round: R97, puzzle: Exclusion 1) | – | 73.2 | 64.2 | –
33 | GAUAGACAUGAGGAUCACCCAUGUGAGGAUAUGCGUACGUUGUCCGUAGGCGACGUGCGCAGAAGGCGCGAGGU [Mat - Mod of JL D93] (puzzle: Exclusion 1) | 42.5 | – | – | –
